Reference: US20210238260A1 (published 2021)
Numbering of substitutions follows the chain as printed. Numbers in names are those of the source.

Legend:
Factor X (FX) = Factor X (FX) (UniProt P00742 41-488); experiment: cell-based or functional assay
[1] = target: T1, plasma purified human antithrombin III (AT-III), in complex with unfractionated heparin (UFH) (human, UniProt P01008 33-464); experiment: K0.5: AT-III concentration (with excess UFH) for 50% inhibition of FIXa activity on Mesyl-D-CHG-Gly-Arg-AMC, 10 s incubation
T1 construct: also called AT-III/UFH

[2] = target: T2, plasma purified human antithrombin III (AT-III), in complex with unfractionated heparin (human, UniProt P01008 33-464); experiment: AT-III/UFH inhibition of FIXa; K0.5 = AT-III conc. for 50% inhibition of residual activity on Mesyl-D-CHG-Gly-Arg-AMC
T2 construct: also called AT-III/UFH

[3] = target: T3, Factor VIIIa (recombinant FVIII, Kogenate FS, activated with alpha-thrombin) (UniProt P00451 20-2351); experiment: same assay; ratio of KD-app of Catalyst Biosciences WT FIXa to KD-app of this FIXa
T3 construct: also called FVIIIa; cofactor
T3 sequence (looked up): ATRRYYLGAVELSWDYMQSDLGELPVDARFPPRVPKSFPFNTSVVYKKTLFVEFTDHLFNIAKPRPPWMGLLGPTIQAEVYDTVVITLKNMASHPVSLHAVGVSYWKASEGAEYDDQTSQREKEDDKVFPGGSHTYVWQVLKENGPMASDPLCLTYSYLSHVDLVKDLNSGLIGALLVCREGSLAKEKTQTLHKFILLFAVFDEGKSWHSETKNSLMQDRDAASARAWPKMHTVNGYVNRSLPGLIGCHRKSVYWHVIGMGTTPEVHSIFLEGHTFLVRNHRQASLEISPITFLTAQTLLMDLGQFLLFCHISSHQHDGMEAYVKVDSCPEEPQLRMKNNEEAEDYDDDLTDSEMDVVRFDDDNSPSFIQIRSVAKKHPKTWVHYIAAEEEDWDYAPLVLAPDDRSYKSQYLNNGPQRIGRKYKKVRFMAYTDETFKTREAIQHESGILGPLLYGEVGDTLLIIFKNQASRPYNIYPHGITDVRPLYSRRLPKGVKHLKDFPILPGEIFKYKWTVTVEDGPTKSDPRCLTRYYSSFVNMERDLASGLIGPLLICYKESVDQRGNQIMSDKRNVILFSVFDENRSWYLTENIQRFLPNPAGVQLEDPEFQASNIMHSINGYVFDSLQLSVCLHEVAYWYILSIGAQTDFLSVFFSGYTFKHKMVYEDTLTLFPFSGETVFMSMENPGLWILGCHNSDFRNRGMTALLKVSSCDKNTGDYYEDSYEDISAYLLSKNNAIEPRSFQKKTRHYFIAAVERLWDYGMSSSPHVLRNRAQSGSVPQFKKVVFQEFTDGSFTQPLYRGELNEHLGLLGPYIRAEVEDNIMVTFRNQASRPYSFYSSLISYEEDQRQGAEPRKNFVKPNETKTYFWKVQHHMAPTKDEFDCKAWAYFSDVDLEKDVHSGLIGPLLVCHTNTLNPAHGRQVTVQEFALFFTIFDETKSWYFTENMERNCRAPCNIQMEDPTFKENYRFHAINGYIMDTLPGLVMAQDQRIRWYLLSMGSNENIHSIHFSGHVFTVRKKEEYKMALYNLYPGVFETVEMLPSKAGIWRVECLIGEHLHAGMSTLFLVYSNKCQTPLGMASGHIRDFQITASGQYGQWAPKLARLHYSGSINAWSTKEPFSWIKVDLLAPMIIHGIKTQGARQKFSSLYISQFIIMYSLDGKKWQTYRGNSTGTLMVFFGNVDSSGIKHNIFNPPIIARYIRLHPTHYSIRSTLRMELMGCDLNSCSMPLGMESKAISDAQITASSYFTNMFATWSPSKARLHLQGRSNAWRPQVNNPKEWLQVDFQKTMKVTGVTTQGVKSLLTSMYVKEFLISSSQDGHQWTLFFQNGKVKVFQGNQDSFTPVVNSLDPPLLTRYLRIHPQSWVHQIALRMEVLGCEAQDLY

[4] = target: T3, Factor VIIIa (recombinant FVIII, …); experiment: apparent functional KD (KD-app): FXa generation by FIXa with FVIIIa titrated, PC/PS vesicles, saturating FX, fluorogenic Spectrafluor FXa
[5] = target: T4, plasma purified human AT-III (antithrombin III) (human, UniProt P01008 33-464); experiment: K0.5: AT-III conc. for 50% inhibition of FIXa amidolytic activity, AT-III/UFH titrated, 10 s incubation
T4 construct: also called AT-III/UFH complex

B1: FIXa-R318Y/R338E/T343R (enzyme)
chain 1: YNSGKLEEFVQGNLERECMEEKCSFEEAREVFENTERTTEFWKQYVDGDQCESNPCLNGGSCKDDINSYECWCPFGFEGKNCELDVTCNIKNGRCEQFCKNSADNKVVCSCTEGYRLAENQKSCEPAVPFPCGRVSVSQTSKLTR
chain 2: VVGGEDAKPGQFPWQVVLNGKVDAFCGGSIVNEKWIVTAAHCVETGVKITVVAGEHNIEETEHTEQKRNVIRIIPHHNYNAAINKYNHDIALLELDEPLVLNSYVTPICIADKEYTNIFLKFGSGYVSGWGRVFHKGYSALVLQYLRVPLVDRATCLESTKFRIYNNMFCAGFHEGGRDSCQGDSGGPHVTEVEGTSFLTGIISWGEECAMKGKYGIYTKVSRYVNWIKEKTKLT
B1 was tested, and the “Factor X activation, fold over wild-type or BeneFIX FIX” value (Factor X (FX)) was about 2.5 fold.

B2: FIXa-K247N/N249S/N260S (enzyme)
chain 1: B1 chain 1
chain 2: B1 chain 2 with K67N, N69S, N80S, Y138R, E158R, R163T
notes: also called K82N/N84S/N95S (chymotrypsin numbering)
With B2 the IC50 [1] was 157 nM.

B3: FIXa-Y155F/K247N/N249S/N260S (enzyme)
chain 1: B1 chain 1
chain 2: B1 chain 2 with K67N, N69S, N80S, Y138R, E158R, R163T
B3 showed an IC50 [1] of 152 nM.

B4: FIXa A103N/N105S/R318Y/R338E/R403E/E410N (enzyme)
light: B1 chain 1 with A103N, N105S
heavy: B1 chain 2 with R163T, R223E, E230N
For B4, the IC50 [2] was 9.19 µM.

B5: FIXa D203N/F205T/R318Y/E410N (enzyme)
light: B1 chain 1
heavy: B1 chain 2 with D23N, F25T, E158R, R163T, E230N
notes: also called D39N/F41T/R150Y/E240N
In the case of B5, the IC50 [2] is reported as 1.28 µM.

B6: FIXa-R318Y/R338E/R403E (enzyme)
chain 1: B1 chain 1
chain 2: B1 chain 2 with R163T, R223E
notes: also called R150Y/R170E/R233E
Work on B6 yielded a KD-WT/KD-mut [3] of 0.3 and a Kd [4] of 340 nM.

B7: FIXa-D104N/K106S/K247N/N249S/N260S (enzyme)
chain 1: B1 chain 1 with D104N, K106S
chain 2: B1 chain 2 with K67N, N69S, N80S, Y138R, E158R, R163T
With B7 the IC50 [1] was 1260 nM.

B8: FIXa-R338E/R403E/E410N (enzyme)
chain 1: B1 chain 1
chain 2: B1 chain 2 with Y138R, R163T, R223E, E230N
notes: also called R170E/R233E/E240N
With B8 the KD-WT/KD-mut [3] was 1.7 and the Kd [4] was 54.9 nM.

B9: FIXa-D104N/K106S/Y155F/K247N/N249S/N260S (enzyme)
chain 1: B1 chain 1 with D104N, K106S
chain 2: B1 chain 2 with K67N, N69S, N80S, Y138R, E158R, R163T
With B9 the IC50 [1] was 692 nM.

B10: FIXa-A103N/N105S/R318Y/R338E/R403E/E410N (enzyme)
chain 1: B1 chain 1 with A103N, N105S
chain 2: B1 chain 2 with R163T, R223E, E230N
In the case of B10, the IC50 [5] is reported as 9.19 µM.

B11: FIXa-K247N/N249S/N260S/R318Y/R338E/R403E/E410N (enzyme)
chain 1: B1 chain 1
chain 2: B1 chain 2 with K67N, N69S, N80S, R163T, R223E, E230N
notes: also called K82N/N84S/N95S/R150Y/R170E/R233E/E240N (chymotrypsin numbering)
In the case of B11, the IC50 [1] is reported as 5560 nM.

B12: FIXa-R318Y/R338E/R403E/E410N (enzyme)
chain 1: B1 chain 1
chain 2: B1 chain 2 with R163T, R223E, E230N
notes: also called R150Y/R170E/R233E/E240N
Work on B12 yielded a KD-WT/KD-mut [3] of 2 and a Kd [4] of 47 nM.

B13: FIXa-D203N/F205T/R318Y/E410N (enzyme)
chain 1: B1 chain 1
chain 2: B1 chain 2 with D23N, F25T, E158R, R163T, E230N
notes: as for B5
B13 was tested, and the IC50 [5] was 1.28 µM.
